Each block holds one molecule with its values, some of them ahead of it. Square brackets hold non-standard residues; d marks the D form.
Tests used:
[1] = biological target: integrin αvβ3 (vitronectin receptor), purified and immobilized (UniProt P06756); assay: solid phase receptor binding assay, iodinated MMP-2 on immobilized αvβ3
[2] = biological target: integrin αIIbβ3, purified and immobilized (UniProt P08514); assay: solid phase receptor binding assay, iodinated MMP-2 on immobilized αIIbβ3
[3] = biological target: T1, integrin αIIbβ3, purified and immobilized (UniProt P08514 32-1039; P05106 27-788); assay: competition, 125I-fibrinogen (1 nM) binding to immobilized purified αIIbβ3, gamma counting; mean of duplicates ± SD
T1 construct: Purified integrin coated at 50 ng per well; also called α11bβ3
Procedure: (§1) Briefly, selected purified integrins were separately immobilized in Titertek microtiter wells at a coating concentration of 50 nanograms (ng) per well. […] After incubation for 18 hours at 4C, nonspecific binding sites on the plate were blocked with 10 milligrams/milliliter (mg/ml) of bovine serum albumin (BSA) in Tris-buffered saline. […] Radiolabeled ligands were used at concentrations of 1 nM and binding was challenged separately with unlabeled synthetic peptides.
(§2) Following a three hour incubation, free ligand was removed by washing and bound ligand was detected by gamma counting.

[4] = biological target: T2, integrin αvβ3 (vitronectin receptor), purified and immobilized (UniProt P06756 31-1048; P05106 27-788); assay: competition, 125I-fibrinogen (1 nM) binding to immobilized purified αvβ3, gamma counting; mean of duplicates ± SD
T2 construct: Purified integrin coated at 50 ng per well; also called αvβ3 receptor
Procedure: as §1, §2

[5] = biological target: T2, integrin αvβ3 (vitronectin receptor), …; assay: competition, fibrinogen (FG) binding to immobilized αvβ3; individual assay
Procedure: as §1, §2

[6] = biological target: T2, integrin αvβ3 (vitronectin receptor), …; assay: competition, vitronectin (VN) binding to immobilized αvβ3; individual assay
Procedure: as §1, §2

[7] = biological target: T1, integrin αIIbβ3, purified and …; assay: competition, vitronectin (VN) binding to immobilized αIIbβ3; individual assay
Procedure: as §1, §2

[8] = biological target: T1, integrin αIIbβ3, purified and …; assay: competition, fibrinogen (FG) binding to immobilized αIIbβ3; individual assay
Procedure: as §1, §2

T2 sequence (P06756 31-1048, form in doubt, chain 1 of 2): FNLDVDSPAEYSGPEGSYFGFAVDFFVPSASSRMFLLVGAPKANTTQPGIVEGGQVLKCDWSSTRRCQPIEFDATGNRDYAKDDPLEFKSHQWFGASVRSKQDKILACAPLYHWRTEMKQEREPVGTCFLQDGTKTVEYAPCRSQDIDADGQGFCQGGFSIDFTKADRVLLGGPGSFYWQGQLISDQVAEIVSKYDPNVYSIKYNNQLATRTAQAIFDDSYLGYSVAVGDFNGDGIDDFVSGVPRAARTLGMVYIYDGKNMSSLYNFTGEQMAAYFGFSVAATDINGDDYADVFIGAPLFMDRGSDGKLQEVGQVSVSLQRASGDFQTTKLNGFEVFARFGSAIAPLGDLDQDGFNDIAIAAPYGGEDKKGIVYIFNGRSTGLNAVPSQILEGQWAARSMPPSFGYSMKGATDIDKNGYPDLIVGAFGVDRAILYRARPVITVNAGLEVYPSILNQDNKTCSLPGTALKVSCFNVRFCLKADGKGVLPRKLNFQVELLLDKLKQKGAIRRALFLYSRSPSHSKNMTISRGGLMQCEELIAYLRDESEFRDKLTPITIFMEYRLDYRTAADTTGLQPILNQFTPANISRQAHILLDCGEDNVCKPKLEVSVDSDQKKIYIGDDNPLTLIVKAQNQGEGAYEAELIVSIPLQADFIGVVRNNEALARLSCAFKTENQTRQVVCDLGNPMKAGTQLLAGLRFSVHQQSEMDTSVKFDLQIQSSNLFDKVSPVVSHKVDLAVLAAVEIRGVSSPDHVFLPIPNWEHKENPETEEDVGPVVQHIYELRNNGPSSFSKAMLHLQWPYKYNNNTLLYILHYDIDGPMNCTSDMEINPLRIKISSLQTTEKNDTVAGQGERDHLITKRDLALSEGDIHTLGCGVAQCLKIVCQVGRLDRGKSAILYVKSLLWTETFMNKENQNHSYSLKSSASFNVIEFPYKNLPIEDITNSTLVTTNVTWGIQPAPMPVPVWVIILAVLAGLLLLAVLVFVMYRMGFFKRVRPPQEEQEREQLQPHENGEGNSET
T2 sequence (P05106 27-788, form in doubt, chain 2 of 2): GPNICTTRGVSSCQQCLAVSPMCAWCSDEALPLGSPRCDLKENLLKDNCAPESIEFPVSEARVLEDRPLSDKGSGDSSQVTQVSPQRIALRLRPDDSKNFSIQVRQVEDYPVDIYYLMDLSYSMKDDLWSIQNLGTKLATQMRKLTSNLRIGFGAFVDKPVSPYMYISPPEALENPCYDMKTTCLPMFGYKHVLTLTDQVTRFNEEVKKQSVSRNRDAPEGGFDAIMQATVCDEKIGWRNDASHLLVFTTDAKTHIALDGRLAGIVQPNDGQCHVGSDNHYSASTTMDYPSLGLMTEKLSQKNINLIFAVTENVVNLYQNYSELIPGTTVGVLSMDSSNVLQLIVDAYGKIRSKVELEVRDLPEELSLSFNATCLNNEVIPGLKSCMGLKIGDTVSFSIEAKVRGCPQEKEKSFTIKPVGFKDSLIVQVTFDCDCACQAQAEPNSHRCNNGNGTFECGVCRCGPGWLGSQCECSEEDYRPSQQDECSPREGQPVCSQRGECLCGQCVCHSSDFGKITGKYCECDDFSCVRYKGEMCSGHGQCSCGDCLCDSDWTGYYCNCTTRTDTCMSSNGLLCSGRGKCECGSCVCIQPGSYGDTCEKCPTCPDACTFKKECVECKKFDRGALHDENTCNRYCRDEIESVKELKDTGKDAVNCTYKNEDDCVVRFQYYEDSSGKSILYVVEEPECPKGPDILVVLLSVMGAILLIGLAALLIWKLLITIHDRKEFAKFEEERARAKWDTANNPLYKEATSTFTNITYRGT
integrin αvβ3 (vitronectin receptor), purified and immobilized (UniProt P06756), sequence (P06756 31-1048, form in doubt, chain 1 of 2): as the sequence (P06756 31-1048, form in doubt, chain 1 of 2) above
integrin αvβ3 (vitronectin receptor), purified and immobilized (UniProt P06756), sequence (P05106 27-788, form in doubt, chain 2 of 2, further chain): as the sequence (P05106 27-788, form in doubt, chain 2 of 2) above

bound cpm [1]: 300 cpm
bound cpm [2]: 10 CPM
Molecule: MMP-2 (matrix metalloproteinase-2) as used in the solid phase receptor binding assays (enzyme)

IC50 [3]: 0.055 µM
IC50 [4]: 0.395 µM
Molecule: cyclo(GRGD[dF]L) (also: TFA salt, TFA salt) [peptide 62179, cyclo(GRGDfL)]

IC50 [3]: 0.63 µM
IC50 [4]: 1.05 µM
Molecule: cyclo(ARGD[dF]L) (also: TFA salt, TFA salt) [peptide 62175, cyclo(ARGDfL)]

IC50 [3]: 15 µM
IC50 [4]: 1.96 µM
B1: peptide 62181, cyclo(GrGDFV) (peptide)
peptide: cyclo(G[dR]GDFV)
modifications: also: TFA salt
notes: TFA salt; also called cyclo(-Gly-D-Arg-Gly-Asp-Phe-Val); c-(GrGDFV)

IC50 [5]: > 100 µM
IC50 [6]: > 100 µM
IC50 [7]: > 100 µM
B2: peptide 62503, GVVRNNEALARLS (peptide)
peptide: GVVRNNEALARLS
notes: Linear synthetic peptide; also called αv-derived amino acid residues 655-667

IC50 [5]: > 100 µM
IC50 [8]: 90 µM
IC50 [6]: > 100 µM
IC50 [7]: 5 µM
B3: peptide 62502, TDVNGDGRHDL (peptide)
peptide: TDVNGDGRHDL
notes: Linear synthetic peptide; also called αIIb-derived amino acid residues 296-306

IC50 [5]: > 100 µM
IC50 [6]: > 100 µM
IC50 [7]: > 100 µM
B4: peptide 62411, TRQVVCDLGNPM (peptide)
peptide: TRQVVCDLGNPM
notes: Linear synthetic peptide; also called αv-derived amino acid residues 676-687

IC50 [5]: < 0.1 µM
IC50 [8]: 4.2 µM
IC50 [6]: 0.5 µM
IC50 [7]: 0.98 µM
B5: peptide 62880, YTAECKPQVTRGDVF (peptide)
peptide: YTAECKPQVTRGDVF
notes: Linear synthetic peptide; also called VN-derived amino acid residues 35-49

IC50 [3]: 100 µM
IC50 [4]: 0.885 µM
B6: peptide 62185, cyclo(RADfV) (peptide)
peptide: cyclo(RAD[dF]V)
modifications: also: TFA salt
notes: also called cyclo(Arg-Ala-Asp-D-Phe-Val)

IC50 [3]: 100 µM
IC50 [4]: 57.5 µM
B7: peptide 62186, cyclo(RaDFV) (peptide)
peptide: cyclo(R[dA]DFV)
modifications: also: TFA salt
notes: TFA salt; also called cyclo(Arg-D-Ala-Asp-Phe-Val)
